According to paper PMC3785480, “BB0347, from the Lyme Disease Spirochete Borrelia burgdorferi, Is Surface Exposed and Interacts with the CS1 Heparin-Binding Domain of Human Fibronectin” (PLoS ONE, 2013):

Target: T1, recombinant BB0347 (Borrelia burgdorferi)
T1 construct: also called rBB0347; source: E. coli Rosetta(DE3)pLysS, pET200, purified (MagneHis nickel particles, dialysed into PBS)
Test: ELISA; FnHBD assay: coated plate treated with varying concentrations of rBB0347, 37°C, 1.5 h; detected with rabbit polyclonal anti-BB0347; KD = concentration of added protein at half-maximal binding, assuming saturation
Details: both partners purified

B1: peptide fragment containing the CS1 heparin-binding domain (HBD) of human Fn (domain or fragment)
chain: AIPAPTDLKFTQVTPTSLSAQWTPPNVQLTGYRVRVTPKEKTGPMKEINLAPDSSSVVVSGLMVATKYEVSVYALKDTLTSRPAQGVVTTLENVSPPRRARVTDATETTITISWRTKTETITGFQVDAVPANGQTPIQRTIKPDVRSYTITGLQPGTDYKIYLYTLNDNARSSPVVIDASTAIDAPSNLRFLATTPNSLLVSWQPPRARITGYIIKYEKPGSPPREVVPRPRPGVTEATITGLEPGTEYTIYVIALKNNQKSEPLIGRKKT
**Q.** With B1 as the binder, how does the Kd read?
**A.** The Kd was 180 ± 14 nM.
